Source: US20120053125

Experiments:
[1] = tested on: human I-1 (S67A), unphosphorylated
[2] = tested on: human I-1 (T75A), unphosphorylated
[3] = tested on: human phosphatase inhibitor-1 (I-1) wild type, dephosphorylated
human I-1 (S67D/T75D) = tested on: T1, human I-1 (S67D/T75D)
T1 sequence: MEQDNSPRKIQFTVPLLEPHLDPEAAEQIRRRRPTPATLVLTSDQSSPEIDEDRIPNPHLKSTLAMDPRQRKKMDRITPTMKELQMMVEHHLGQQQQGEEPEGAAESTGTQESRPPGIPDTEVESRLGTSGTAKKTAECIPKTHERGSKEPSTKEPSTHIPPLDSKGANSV

Row | Substance | 32P incorporated per protein at steady state (20-45 min), percent of wild type [1] | stoichiometry of phosphorylation at 45 min [1] | 32P incorporation upon PKC-α incubation (human I-1 (S67A/T75A)) | 32P incorporated per protein at 45 min, percent of wild type [2] | stoichiometry of phosphorylation at 45 min [2] | stoichiometry of phosphorylation at 45 min [3] | 32P incorporation upon PKA incubation, decrease against wild-type (human I-1 (S67D/T75D))
1 | Protein Kinase C alpha (PKC-α), Upstate Biotechnology | I-1 (S67A) incorporated 40±8.6% of the radioactivity levels present in wild types (100%) | the incorporation of Pi into I-1(S67A) and I-1(T75A) were reduced to 0.35 and 0.30 mol Pi/mol protein, respectively | mutation of both Ser-67 and Thr-75 to Ala abolishes ^32P-incorporation into I-1 | I-1 (T75A) incorporated 33.8±12.7% of the levels in wild type (100%) | the incorporation of Pi into I-1(S67A) and I-1(T75A) were reduced to 0.35 and 0.30 mol Pi/mol protein, respectively | I-1 wild-type was phosphorylated by PKC-α for 45 min to a stoichiometry of 0.88 mol Pi/mol protein | 
2 | Protein Kinase A (PKA, cAMP-dependent protein kinase), Upstate Biotechnology |  |  |  |  |  |  | the double mutant incorporated 29% less radioactivity than the wild-type
